# Tests used:
# Cdk2 [1] = biological target: Cdk2 (UniProt P24941); assay: single-molecule FRET, dyes at C54 and C93; details: reference: unphosphorylated p27-C54-93; sites Y88
# Cdk2 [2] = biological target: Cdk2 (UniProt P24941); assay: single-molecule fluorescence anisotropy, BODIPY at C93; details: reference: unphosphorylated p27-C93; sites Y88
other: fraction in released minor state (Cdk2 [1]),other: fraction in flexible state (Cdk2 [2]),Substance
weaker; reference 17,,p27Kip1 (p27) 1-198 (from UniProt P46527) pY88-p27-C54-93
,weaker; reference 33,p27Kip1 (p27) 1-198 (from UniProt P46527) pY88-p27-C93
